Residue numbers refer to the chain shown, from its start.

This passage reports Kd results from patent publication US20230383012A1 (published 2023).

Experiment [1] concerns the target XPL2-BC-5B6-hIgG1. Put plainly: Biacore.
Experiment [2] has as its target XPL2-BC-5C11-hIgG1. In words: Biacore.
Experiment [3] addresses XPL2-BC-12B9-hIgG1. Put plainly: Biacore. In general terms: In SPR one partner is held on a chip, and binding of the other changes the refractive index at the surface.
Experiment [4] addresses XPL2-BC-8F4-hIgG1. Put plainly: Biacore.
In experiment [5] the target is XPL2-BC-8H11-hIgG1. In words: Biacore.
Experiment [6] has as its target XPL2-BC-12A6-hIgG1. In words: Biacore.
Experiment [7] concerns the target XPL2-BC-7D1-hIgG1. Put plainly: Biacore.
In experiment [8] the target is XPL2-BC-3A9-hIgG1. In words: Biacore.
Experiment [9] addresses XPL2-BC-1G10-hIgG1. In words: Biacore.
The target of experiment [10] is XPL2-BC-16G11-hIgG1. In words: Biacore.
Experiment [11] concerns the target XPL2-BC-9H4-hIgG1. Put plainly: Biacore.
Experiment [12] has as its target XPL2-BC-12A11-hIgG1. Put plainly: Biacore.
In experiment [13] the target is XPL2-BC-5F1-hIgG1. In words: Biacore.
Experiment [14] deals with XPL2-BC-6H10-hIgG1. Put plainly: Biacore.
The target in experiment [15] is XPL2-BC-7D3-hIgG1. Put plainly: Biacore.
Experiment [16] concerns the target XPL2-BC-1E12-hIgG1. Put plainly: Biacore.
Experiment [17] addresses XPL2-BC-10H5-hIgG1. In words: Biacore.
Experiment [18] concerns the target XPL2-BC-8G2-hIgG1. Put plainly: Biacore.
Experiment [19] deals with XPL2-BC-8H8-hIgG1. In words: Biacore.
For experiment [20], the target named is XPL2-BC-12B12-hIgG1. In words: Biacore.
For experiment [21], the target named is XPL2-BC-12B7-hIgG1. Put plainly: Biacore.
For experiment [22], the target named is XPL2-BC-12B2-hIgG1. In words: Biacore.
Experiment [23] deals with XPL2-BC-5F2-hIgG1. In words: Biacore.
In experiment [24] the target is XPL2-BC-7B10-hIgG1. Put plainly: Biacore.
The target in experiment [25] is XPL2-BC-8G5-hIgG1. In words: Biacore.
Experiment [26] deals with XPL2-BC-7E9-hIgG1. In words: Biacore.
Experiment [27] has as its target XPL2-BC-13G1-hIgG1. Put plainly: Biacore.
Experiment [28] concerns the target Human PDL1 (human, UniProt Q9NZQ7 19-238). Put plainly: Biacore; EXP1.
Experiment [29] has as its target Cyno PDL1. In words: Biacore; EXP1.
The target in experiment [30] is human CD28 antigen (human, UniProt P10747 19-152). Put plainly: Octet; VHVL.

B1: PDL2 (ligand)
chain: LFTVTVPKELYIIEHGSNVTLECNFDTGSHVNLGAITASLQKVENDTSPHRERATLLEEQLPLGKASFHIPQVQVRDEGQYQCIIIYGVAWDYKYLTLKVKASYRKINTHILKVPETDEVELTCQATGYPLAEVSWPNVSVPANTSHSRTPEGLYQVTSVLRLKPPPGRNFSCVFWNTHVRELTLASIDLQSQMEPRTHPT
In general, Kd refers to the free concentration of one partner at which half of the binding sites on the other are occupied at equilibrium, for simple one-to-one binding. As to B1, the Kd turned out to be 0.765 nM in experiment [1]; 1.77 nM in [2]; 5.88 nM in experiment [3]; 7.13 nM in experiment [4]; 0.525 nM in experiment [5]; 303 nM in experiment [6]. Also, the dissociation constant Kd in experiment [7] came to 5.66 nM; in [8] it was 192 nM; in experiment [9], 5.87 nM; in experiment [10], 0.491 nM; in [11] it was 73.2 nM; in experiment [12] it was 21.8 nM. Further, the Kd in experiment [13] turned out to be 12.5 nM; in experiment [14], 6.02 nM; in experiment [15], 1.49 nM; in [16] it was 80.7 nM; in experiment [17] it was 64.9 nM; in experiment [18] it was 0.39 nM. Moreover, the Kd in experiment [19] amounted to 3.75 nM; in [20] it was 73.7 nM; in experiment [21], 8.44 nM; in experiment [22], 15.1 nM; in [23], 11.6 nM; in experiment [24] it was 1.77 nM. Moreover, the figures for the Kd in experiment [25], in [26] and in experiment [27] were 1.09 nM, 0.25 nM and 5.1 nM, respectively.

B2: XENP 37559 (H1L1) (bispecific antibody)
chain 1: EVQLLESGGGLVQPGGSLRLSCAASGFTFSSYDMSWVRQAPGKRLEWVSTISSGGSFTHYPDSVKGRFTISRDNSKNTLYLQMNSLRAEDTAVYYCVRRSGDWYFDVWGAGTTVTVSSASTKGPSVFPLAPSSKSTSGGTAALGCLVKDYFPEPVTVSWNSGALTSGVHTFPAVLQSSGLYSLSSVVTVPSSSLGTQTYICNVNHKPSDTKVDKKVEPKSCDKTHTCPPCPAPPVAGPSVFLFPPKPKDTLMISRTPEVTCVVVDVKHEDPEVKFNWYVDGVEVHNAKTKPREEEYNSTYRVVSVLTVLHQDWLNGKEYKCKVSNKALPAPIEKTISKAKGQPREPQVYTLPPSREEMTKNQVSLTCDVSGFYPSDIAVEWESDGQPENNYKTTPPVLDSDGSFFLYSKLTVDKSRWEQGDVFSCSVMHEALHNHYTQKSLSLSPGK
chain 2: not shown
chain 3: EIVLTQSPGTLSLSPGERATLSCRVSSSISSSNLHWYQQKPGQSPRPLIYGTSNLASGVPVRFSGSGSGTDYTLTISRLEPEDFAVYYCQQWSSYPLYTFGGGTKVEIKRTVAAPSVFIFPPSDEQLKSGTASVVCLLNNFYPREAKVQWKVDNALQSGNSQESVTEQDSKDSTYSLSSTLTLSKADYEKHKVYACEVTHQGLSSPVTKSFNRGEC
With B2, the Kd in experiment [28] worked out at 2.6 nM; in experiment [29] it was 2.2 nM.

B3: H1.1_L1.71 (antibody, V domains shown)
VH: EVQLLESGGGLVQPGGSLRLSCAASGFTFPSRDMSWVRQAPGKRLEWVSTISSGGSFTHYPDSVKGRFTISRDNSKNTLYLQMNSLRAEDTAVYYCVRRSGDWYFDVWGAGTTVTVSS
VL: EIVLTQSPGTLSLSPGERATLSCRVSSSIQSTNLHWYQQKPGQSPRPLIYGTSTLATGVPVRFSGSGSGTDYTLTISRLEPEDFAVYYCQQWSSYPLYTFGGGTKVEIK
The molecule B3 came in with a Kd in experiment [30] of 96 nM.

B4: H1_L1.71 (antibody, V domains shown)
VH: B3 VH with P30S, R32Y
VL: B3 VL
B4: binding in experiment [30] was characterised by a dissociation constant (Kd) of 180 nM.

B5: H1.1_L1 (antibody, V domains shown)
VH: B3 VH
VL: B3 VL with Q30S, T32S, T54N, T57S
In experiment [30], B5 showed a Kd of 600 nM. Compared with the last molecule, the Kd is about 3.3-fold higher.

B6: H1L1 (antibody, V domains shown)
VH: B3 VH with P30S, R32Y
VL: B3 VL with Q30S, T32S, T54N, T57S
In turn, B6 had a Kd in experiment [30] of 1000 nM. Against the preceding molecule, the Kd is about 1.7-fold higher.
